Measured values taken from patent US12544428B2, “Controlled-release CNP agonists with reduced side-effects” (ASCENDIS PHARMA GROWTH DISORDERS A/S, priority 2016, dated 2026).

Assays:
NPR-C = target: T1, NPR-C (Homo sapiens, UniProt P17342); assay: NPR-C affinity assay; type: binding; conditions: residual NPR-C affinity, NPR-C expressing Hek293 cells, competition with fluorescein-labelled CNP 27d
T1 construct: expressed in transfected cells; host or cells: Hek293, lentiviral transduction, CMV promoter, puromycin selection
T1 sequence (P17342 27-541): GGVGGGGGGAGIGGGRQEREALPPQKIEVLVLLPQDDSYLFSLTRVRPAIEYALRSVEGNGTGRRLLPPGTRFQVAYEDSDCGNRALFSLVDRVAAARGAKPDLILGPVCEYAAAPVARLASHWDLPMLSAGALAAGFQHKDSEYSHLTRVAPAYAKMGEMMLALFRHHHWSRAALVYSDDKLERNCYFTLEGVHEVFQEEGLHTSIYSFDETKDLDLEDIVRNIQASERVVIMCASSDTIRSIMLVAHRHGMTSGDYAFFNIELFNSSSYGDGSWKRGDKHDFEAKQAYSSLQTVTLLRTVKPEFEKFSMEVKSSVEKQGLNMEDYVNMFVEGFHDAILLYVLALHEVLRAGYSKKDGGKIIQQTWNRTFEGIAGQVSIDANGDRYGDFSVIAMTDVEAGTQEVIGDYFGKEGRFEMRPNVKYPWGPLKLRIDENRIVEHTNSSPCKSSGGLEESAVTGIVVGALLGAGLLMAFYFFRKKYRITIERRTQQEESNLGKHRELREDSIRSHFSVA

NPR-B receptor = target: T2, NPR-B receptor (Mus musculus, UniProt Q6VVW5); assay: Functional cGMP stimulation in NIH-3T3 cells with CNP variants; type: cell-based, murine; conditions: residual NPR-B activity vs non-PEGylated CNP-38, cGMP
T2 construct: These cells express endogenously the NPR-B receptor on the cell surface; endogenous in cells; host or cells: NIH-3T3 (murine embryo fibroblast)
T2 sequence (Q6VVW5 23-1047 limits assumed): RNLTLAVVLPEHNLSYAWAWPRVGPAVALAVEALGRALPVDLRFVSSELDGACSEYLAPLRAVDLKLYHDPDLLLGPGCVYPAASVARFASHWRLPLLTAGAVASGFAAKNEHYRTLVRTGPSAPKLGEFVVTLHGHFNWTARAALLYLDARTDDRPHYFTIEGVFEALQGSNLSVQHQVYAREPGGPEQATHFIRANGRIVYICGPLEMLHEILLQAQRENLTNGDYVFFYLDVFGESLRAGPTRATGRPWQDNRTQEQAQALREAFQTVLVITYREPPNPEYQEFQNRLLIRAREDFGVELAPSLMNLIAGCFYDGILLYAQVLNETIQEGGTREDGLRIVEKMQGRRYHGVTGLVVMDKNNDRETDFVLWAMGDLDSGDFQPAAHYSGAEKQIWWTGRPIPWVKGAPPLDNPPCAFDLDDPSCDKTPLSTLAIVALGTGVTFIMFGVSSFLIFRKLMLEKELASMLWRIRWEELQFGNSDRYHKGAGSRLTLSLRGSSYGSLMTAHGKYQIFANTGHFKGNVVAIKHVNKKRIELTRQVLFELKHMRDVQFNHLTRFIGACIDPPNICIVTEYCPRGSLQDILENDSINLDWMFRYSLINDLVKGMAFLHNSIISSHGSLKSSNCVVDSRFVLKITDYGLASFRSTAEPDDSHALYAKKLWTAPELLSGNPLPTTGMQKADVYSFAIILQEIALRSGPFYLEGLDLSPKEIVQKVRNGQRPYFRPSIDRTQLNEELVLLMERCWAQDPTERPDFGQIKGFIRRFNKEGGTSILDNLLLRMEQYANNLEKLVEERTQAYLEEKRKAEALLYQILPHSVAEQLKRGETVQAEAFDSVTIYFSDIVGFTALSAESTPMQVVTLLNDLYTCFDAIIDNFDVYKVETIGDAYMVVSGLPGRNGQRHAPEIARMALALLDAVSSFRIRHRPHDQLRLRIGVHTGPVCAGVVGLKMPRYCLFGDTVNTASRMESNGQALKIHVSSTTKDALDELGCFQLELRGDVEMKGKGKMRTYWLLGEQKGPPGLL
Protocol: As used herein “EC50” with regard to controlled-release CNP agonist and CNP agonist refers to the concentration of controlled-release CNP agonist and CNP agonist with which a half-maximum cGMP production of NPR-B is elicited. NPR-B activity in the form of its EC50 of the controlled-release CNP agonist, of the released CNP agonist and of CNP-22 is measured by cultivating NIH-3T3 (Murine Embryo Fibroblast cell line) cells which express NPR-B on their cell surface, incubating the cells with the controlled-release CNP agonist, the corresponding released CNP agonist or CNP-22, respectively, and determining the intracellular production of the second messenger cGMP with a standard cGMP assay. In particular the assay is performed as follows: • (1) murine NIH-3T3 cells expressing endogenous NPR-B are cultivated in DMEM F-12 medium with 5% FBS and 5 mM glutamine at 37° C. and 5% CO2; • (2) for each assay 50,000 cells are resuspended in Dulbecco's PBS with IBMX and incubated with either the controlled-release CNP agonist, the corresponding released CNP agonist or CNP-22; each in different concentrations; • (3) after incubating for 30 min at 37° C. and 5% CO2, the cells are lysed and cGMP levels are determined; and • (4) generating an EC50 value from the determined cGMP levels.
Functional activity of CNP variants were determined in a cell-based assay with NIH-3T3 cells (Murine Embryo Fibroblast cell line). These cells express endogenously the NPR-B receptor on the cell surface. Stimulation of the NPR-B receptor with CNP leads to intracellular production of the second messenger cGMP which is detected with a commercially available cGMP assay. NIH-3T3 cells were routinely cultured in DMEM F-12 medium with 5% FBS and 5 mM glutamine at 37° C. and 5% CO2. For each assay, 50,000 cells were resuspended in stimulation buffer (Dulbecco's PBS with IBMX) and incubated with the CNP variants in different concentrations. CNP (dilutions were made in PBS with 0.2% BSA). After incubation of 30 min at 37° C. and 5% CO2, the cells were lyzed and cGMP levels were determined with a commercially available cGMP TR-FRET assay (Cisbio, cGMP kit, Cat. No. 62GM2PEB). PEGylated CNP variants were always characterized in comparison with the non-PEGylated version in the same experiment batch. If possible, evaluation of the residual activity was done via the relative EC50-parameter of the resulting dose-response curve (restricted model with common slope).
11i was incubated under physiological conditions (1 mg CNP-38 eq/mL), as described in Example 20. After 7 d, released CNP-38 was isolated by RP-HPLC and analyzed for bioactivity as described in Example 21.

[1] = 0.146 mg CNP-38 eq/kg
Protocol: Plasma total CNP-38 concentrations (conjugated and released CNP-38) were determined by quantification of the N-terminal signature peptide (sequence: […]) and C-terminal signature peptide (sequence: […]) after tryptic digestion.
LC-MS analysis was carried out by using an Agilent 1290 UPLC coupled to an Agilent 6550 iFunnel Q-TOF mass spectrometer via an ESI probe. Chromatography was performed on a Waters Acquity BEH300 C18 analytical column (50×2.1 mm I.D., 1.7 μm particle size) with pre-filter at a flow rate of 0.25 mL/min (T=25° C.). Water (UPLC grade) containing 0.2% formic acid (v/v) was used as mobile phase A and acetonitrile (UPLC grade) with 0.2% formic acid as mobile phase B. The gradient system comprised a short isocratic step at the initial parameters of 0.1% B for 3.0 min followed by a linear increase from 0.1% B to 16% B in 17 min. Mass analysis was performed in the single ion monitoring (SIM) mode, monitoring the ions m/z 482.75 [M+2H]^2+ (N-terminal) and m/z 824.36 [M+H]^1+ (C-terminal). As internal standard deuterated CNP-38 peptide was used.
Calibration standards of CNP-38 conjugate in blank plasma were prepared as follows: The thawed Li-heparin cynomolgous plasma was first homogenized, then centrifuged for 5 minutes. […] These solutions were used for the generation of a calibration curve.
For sample preparation, protein precipitation was carried out by addition of 300 μL of pre-cooled (0° C.) methanol to 100 μL of the plasma sample. 200 μL of the supernatant were transferred into a new well-plate and evaporated to dryness (under a gentle nitrogen stream at 35° C.). 100 μL of reconstitution solvent (Thermo digestion buffer, order number 60109-101, Thermo Fisher Scientific GmbH, Dreieich, Germany) were used to dissolve the residue. 20 μg of trypsin (order number V5111, Promega GmbH, Mannheim, Germany) were dissolved in 20 μL of 10 mM acetic acid. 2 μL of the trypsin solution were added to each cavity.
After 4 hours incubation at 37° C. (water bath), 5 μL of a 0.5 M TCEP solution were added to each cavity and incubated again for 5 min at 96° C. After the samples had cooled to room temperature, 3 μL acetonitrile were added. The eluates were transferred into vials. 10 μL were injected into the UPLC-MS system.
Male cynomolgus monkeys (2-4 years old, 3-5 kg) received either a single subcutaneous administration (n=3 animals) of compound 10f or a single subcutaneous (n=3 animals) administration of 11i at a dose of 0.146 mg CNP-38 eq/kg. Blood samples were collected up to 168 h post dose, and plasma was generated. Plasma levels of total CNP-38 content were analyzed as described in example 24. In order to analyze the plasma content of free CNP-38, the blood samples were acidified after withdrawal by adding 20 vol % of 0.5 M sodium citrate buffer pH 4 to stop further CNP-38 release from the conjugate. Free CNP-38 levels in plasma can e.g. be determined by ELISA using a CNP antibody that binds to the ring region of CNP, as described in the literature (U.S. Pat. No. 8,377,884 B2), or by LC-MS/MS.

[2] = Evaluation of cardiovascular effects in the conscious telemetered mouse (subcutaneous administration); type: in vivo, Crl:CD1(ICR) mice; conditions: for MAP: mean ± SD, n = 4
From the text: The purpose of this study was to evaluate the haemodynamic side effects of 11i at dose level equivalent to a CNP-38 dose level eliciting haemodynamic side effects (decrease in blood pressure) in the telemetered mouse.
Male Crl:CD1(ICR) mice (age range 8-13 weeks and body weight range 27.3-35.6 g at start of dosing) were surgically implanted with a TA11PA-C10 telemetry transmitter (Data Sciences International (DSI)) in the carotid artery. The body of the transmitter was placed subcutaneously in the lateral flank of the mouse. The mice were dosed subcutaneously in a latin square crossover design with at least 72 hours between dosing occasions. Mice were dosed with 1) vehicle (10 mM succinate, 46.0 g/L mannitol, pH 4.00), 2) CNP-38 (800 μg CNP-38/kg, 10 mM succinate, 46.0 g/L mannitol, pH 4.00) or 3) 11i (800 μg CNP-38 eq/kg, 10 mM succinate, 46.0 g/L mannitol, pH 4.00). At least four mice were included at each dose level. Blood pressure (systolic (SAP), diastolic (DAP) and mean (MAP) and heart rate (HR, derived from blood pressure), were recorded using a digital data capture system linked with a DSITM Ponemah data acquisition and analysis system. The capture system allowed recording of the cardiovascular parameters whilst the mice were in individual cages. On the day of each test session the animals were weighed and a predose recording was performed for at least 60 min prior to dosing. Each mouse was returned to the home cage and the cardiovascular parameters were recorded for approximately 48 hours postdose. Blood pressure and HR were reported at the following time points: −30, −20, −10, 5, 15 and 30 min postdose and 1, 2, 6, 12, 18, 24, 30, 36, 42 and 48 hours postdose. Each time point was presented as the average value of five minute's recording prior to the time point. The monitoring period was selected to cover exposure to the test items both prior to and after Tmax.

Substance | IC50 of PEGylated CNP-38/IC50 CNP-38 (NPR-C) | EC50 compound/EC50 CNP-38 (NPR-B receptor) | dose site reactions ([1]; single sc) | terminal half life ([1]; single sc, C-terminal and N-terminal peptide) [days] | total CNP-38 plasma level after 168 h ([1]; single sc, C-terminal peptide) | total CNP-38 tmax ([1]; single subcutaneous administration) [h] | HR ([2]; 800 μg CNP-38 (eq)/kg sc) | MAP versus vehicle at the remaining ten time points ([2]; 1 to 48 hours postdose, 800 μg CNP-38 (eq)/kg sc) | change in MAP compared to predose ([2]; 5, 15 and 30 min post dose, 800 μg CNP-38 (eq)/kg sc, CNP-38: 3 of 4 animals) | MAP ([2]; 5 min post dose, 800 μg CNP-38 (eq)/kg sc) [mmHg] | MAP ([2]; 15 min post dose, 800 μg CNP-38 (eq)/kg sc) [mmHg] | MAP ([2]; 30 min post dose, 800 μg CNP-38 (eq)/kg sc) [mmHg] | MAP ([2]; predose, 800 μg CNP-38 (eq)/kg sc) [mmHg] | effect on blood pressure ([2]; subcutaneous, dosage equivalent to CNP-38 800 μg/kg)
Permanent N-Terminal CNP-38 PEG 5 kDa Conjugate [Compound 15e] | 0.53 | >5 |  |  |  |  |  |  |  |  |  |  |  | 
Reversible Lys26 CNP-38 PEG4×10 kDa Conjugate [Compound 11i] |  |  | No dose site reactions were observed | 3 to 4 | ca. 30 % of cmax | 24 | not impacted | no difference in MAP | same physiological increase in MAP | 122.8 ± 5.9 | 121.5 ± 7.5 | 111.5 ± 13.7 | 106.4 ± 10.7 | did not decrease blood pressure
